These results are taken from US11034762 (CENTIVAX, dated 2021).

Sequences and labels used below:
T1: MERS Receptor Binding Domain (RBD) protein (MERS virus, UniProt K9N5Q8 367-606)
T1 construct: also called Middle East Respiratory Syndrome (MERS) virus
T1 sequence: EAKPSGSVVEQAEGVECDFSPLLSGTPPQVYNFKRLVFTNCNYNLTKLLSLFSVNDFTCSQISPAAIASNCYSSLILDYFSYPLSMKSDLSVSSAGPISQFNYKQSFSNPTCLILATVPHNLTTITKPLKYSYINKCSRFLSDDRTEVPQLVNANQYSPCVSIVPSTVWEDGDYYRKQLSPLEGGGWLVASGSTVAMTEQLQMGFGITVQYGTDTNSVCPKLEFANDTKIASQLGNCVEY

B1: COVID19_P22_F11 (scFv, V domains shown)
VH: QVQLVQSGAEVKKPGSSVKVSCKASGGGFITYWISWVRQAPGQGLEWMGIIYPGDGEARYSQKFQGRVTITADESTSTAYMELSSLRSEDTAVYYCAGGSGIIQPMDVWGQGTLVTVSS
VL: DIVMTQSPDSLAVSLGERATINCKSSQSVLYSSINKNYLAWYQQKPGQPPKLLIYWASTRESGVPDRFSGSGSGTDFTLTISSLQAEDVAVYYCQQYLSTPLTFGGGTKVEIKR
B2: COVID19_P09_G12 (scFv, V domains shown)
VH: QVQLVQSGAEVKKPGSSVKVSCKASGYPFTNYGISWVRQAPGQGLEWMGWMNPNSGNTGYAQKFQGRVTITADESTSTAYMELSSLRSEDTAVYYCATLSGISTPMDVWGQGTLVTVSS
VL: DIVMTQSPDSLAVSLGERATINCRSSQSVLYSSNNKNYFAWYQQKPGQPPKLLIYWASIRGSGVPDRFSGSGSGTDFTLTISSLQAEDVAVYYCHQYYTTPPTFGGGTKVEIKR
B3: COVID19_P21_B12 (scFv, V domains shown)
VH: QVQLVQSGAEVKKPGSSVKVSCKASGGTFSSYAISWVRQAPGQGLEWMGMINPGGGNTNYAEKFQGRVTITADESTSTAYMELSSLRSEDTAVYYCAGEWGISTPMDVWGQGTLVTVSS
VL: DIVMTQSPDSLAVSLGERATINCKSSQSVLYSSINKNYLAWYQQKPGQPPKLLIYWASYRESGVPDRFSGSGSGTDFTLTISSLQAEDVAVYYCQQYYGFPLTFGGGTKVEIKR
B4: COVID19_P09_B09 (scFv, V domains shown)
VH: QVQLVQSGAEVKKPGSSVKVSCKASGYRFTDYHLHWVRQAPGQGLEWMGGIVPFSGTTNFAQKFQGRVTITADESTSTAYMELSSLRSEDTAVYYCAGGSGETTPMDVWGQGTLVTVSS
VL: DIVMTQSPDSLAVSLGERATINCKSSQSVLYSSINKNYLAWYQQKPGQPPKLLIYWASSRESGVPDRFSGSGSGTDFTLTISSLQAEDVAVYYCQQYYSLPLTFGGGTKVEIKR
B5: COVID19_P21_A05 (scFv, V domains shown)
VH: B1 VH with S35G, A58T, I103S, Q104T
VL: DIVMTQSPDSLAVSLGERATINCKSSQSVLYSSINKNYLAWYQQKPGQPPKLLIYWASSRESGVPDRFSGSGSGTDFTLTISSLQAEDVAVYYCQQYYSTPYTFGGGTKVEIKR
B6: COVID19_P21_A04 (scFv, V domains shown)
VH: B1 VH with G27Y, S35G, G56S, A58T, I102L, I103L, Q104T
VL: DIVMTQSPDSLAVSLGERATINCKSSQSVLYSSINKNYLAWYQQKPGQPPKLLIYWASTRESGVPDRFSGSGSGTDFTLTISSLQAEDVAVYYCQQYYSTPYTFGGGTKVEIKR
B7: COVID19_P09_G05 (scFv, V domains shown)
VH: QVQLVQSGAEVKKPGSSVKVSCKASGYTFTGHYMHWVRQAPGQGLEWMGIIYPGDSEARYSQKFQGRVTITADESTSTAYMELSSLRSEDTAVYYCAGGSGISTPMDVWGQGTLVTVSS
VL: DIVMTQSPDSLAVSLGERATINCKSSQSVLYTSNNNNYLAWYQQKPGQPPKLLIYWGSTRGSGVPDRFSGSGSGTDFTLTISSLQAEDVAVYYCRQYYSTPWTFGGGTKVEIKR
B8: COVID19_P21_F02 (scFv, V domains shown)
VH: B7 VH with G31S, H32Y, Y33G, M34I, H35S, S56G, E57T, A58T, A97L, G98P
VL: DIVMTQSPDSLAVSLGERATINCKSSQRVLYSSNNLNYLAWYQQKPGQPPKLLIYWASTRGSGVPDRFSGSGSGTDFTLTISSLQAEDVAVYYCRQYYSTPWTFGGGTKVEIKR
B9: COVID19_P10_B04 (scFv, V domains shown)
VH: B1 VH with G27Y, T31S, S35G, A58T, G99S, S100D, I103S, Q104T
VL: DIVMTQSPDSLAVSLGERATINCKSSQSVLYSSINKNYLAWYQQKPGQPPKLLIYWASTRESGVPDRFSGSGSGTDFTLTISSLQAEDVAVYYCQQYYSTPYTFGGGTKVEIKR
B10: COVID19_P21_E08 (scFv, V domains shown)
VH: B1 VH with G27Y, S35G, A58T, I103S, Q104T
VL: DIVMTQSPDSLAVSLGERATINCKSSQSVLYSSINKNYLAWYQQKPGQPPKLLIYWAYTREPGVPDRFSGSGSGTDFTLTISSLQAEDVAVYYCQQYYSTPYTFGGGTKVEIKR
B11: COVID19_P21_E07 (scFv, V domains shown)
VH: B1 VH with G27Y, S35G, G56S, A58T, I103S, Q104T
VL: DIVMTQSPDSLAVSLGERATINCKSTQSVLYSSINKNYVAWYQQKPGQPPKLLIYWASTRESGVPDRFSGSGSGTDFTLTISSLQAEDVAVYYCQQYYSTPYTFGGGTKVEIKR
B12: COVID19_P21_B11 (scFv, V domains shown)
VH: B1 VH with G27Y, S35G, G56S, A58T, G99S, S100D, I103S, Q104T
VL: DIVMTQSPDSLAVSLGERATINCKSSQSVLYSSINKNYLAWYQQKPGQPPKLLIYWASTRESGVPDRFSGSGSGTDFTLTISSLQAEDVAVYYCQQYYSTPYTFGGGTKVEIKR
B13: COVID19_P22_D06 (scFv, V domains shown)
VH: B1 VH with S35G, G56S, A58T, I102V, I103L, Q104T
VL: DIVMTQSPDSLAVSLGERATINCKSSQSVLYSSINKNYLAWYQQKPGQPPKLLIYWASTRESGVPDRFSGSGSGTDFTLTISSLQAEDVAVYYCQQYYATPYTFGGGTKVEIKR
B14: COVID19_P21_A10 (scFv, V domains shown)
VH: B1 VH with G27Y, S35G, I103S, Q104T
VL: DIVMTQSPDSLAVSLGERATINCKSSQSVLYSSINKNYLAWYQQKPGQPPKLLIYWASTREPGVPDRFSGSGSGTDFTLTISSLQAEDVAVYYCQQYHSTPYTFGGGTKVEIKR
B15: COVID19_P22_E10 (scFv, V domains shown)
VH: B1 VH with S35G, A58T, I103S, Q104T
VL: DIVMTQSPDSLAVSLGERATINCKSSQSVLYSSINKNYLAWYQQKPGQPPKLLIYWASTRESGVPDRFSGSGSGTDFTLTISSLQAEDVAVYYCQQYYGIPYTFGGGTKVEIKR
B16: COVID19_P21_H02 (scFv, V domains shown)
VH: B1 VH with G27Y, S35G, G56S, A58T, S61A, I102L, I103Y, Q104T
VL: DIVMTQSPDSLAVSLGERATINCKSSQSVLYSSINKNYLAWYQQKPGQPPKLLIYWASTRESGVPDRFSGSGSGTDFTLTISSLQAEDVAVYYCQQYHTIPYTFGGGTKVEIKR
B17: COVID19_P09_C08 (scFv, V domains shown)
VH: B1 VH with G27Y, S35G, G56S, A58T, S61A, I103S, Q104T
VL: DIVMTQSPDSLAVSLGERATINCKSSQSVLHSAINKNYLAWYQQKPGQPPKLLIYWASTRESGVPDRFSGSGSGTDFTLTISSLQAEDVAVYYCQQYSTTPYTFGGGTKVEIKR
B18: COVID19_P09_G04 (scFv, V domains shown)
VH: B1 VH with G27Y, S35G, G56S, A58T, R59N, I102L, I103F, Q104T
VL: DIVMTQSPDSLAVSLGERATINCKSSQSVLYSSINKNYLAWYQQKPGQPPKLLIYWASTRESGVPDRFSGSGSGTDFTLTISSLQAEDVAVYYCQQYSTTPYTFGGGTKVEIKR
B19: COVID19_P10_B08 (scFv, V domains shown)
VH: QVQLVQSGAEVKKPGSSVKVSCKASGGGFITYWIGWVRQAPGQGLEWMGWINPNSGGTKYAQKFQGRVTITADESTSTAYMELSSLRSEDTAVYYCAGGSGISTPIDVWGQGTLVTVSS
VL: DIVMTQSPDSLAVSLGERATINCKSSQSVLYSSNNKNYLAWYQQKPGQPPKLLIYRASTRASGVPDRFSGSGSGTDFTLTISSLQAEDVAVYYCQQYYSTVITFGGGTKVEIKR
B20: COVID19_P21_C09 (scFv, V domains shown)
VH: B1 VH with G27Y, T31S, S35G, G56S, A58T, I103L, Q104E
VL: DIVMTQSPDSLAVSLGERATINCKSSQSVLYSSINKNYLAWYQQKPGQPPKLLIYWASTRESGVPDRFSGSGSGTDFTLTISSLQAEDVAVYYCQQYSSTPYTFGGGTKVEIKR
B21: COVID19_P21_A03 (scFv, V domains shown)
VH: QVQLVQSGAEVKKPGSSVKVSCKASGGTFSNNGLSWVRQAPGQGLEWMGGIIPIFGTANYAQKFQGRVTITADESTSTAYMELSSLRSEDTAVYYCRMGSGISTPMDVWGQGTLVTVSS
VL: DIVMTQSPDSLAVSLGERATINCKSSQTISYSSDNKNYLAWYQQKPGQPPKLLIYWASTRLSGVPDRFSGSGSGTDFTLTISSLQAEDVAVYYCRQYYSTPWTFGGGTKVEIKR

The term Kd denotes the concentration at which binding is half-saturated. Low values mean higher affinity, high ones lower affinity. For orientation: koff means the rate constant with which the complex falls apart. A low value points to slow dissociation. A word on the kon: it is a measure of how fast the partners come together. Low values mean slow association, high ones fast association.

Substitutions are numbered along the chain they refer to.

For one assay, the target named is T1, MERS Receptor Binding Domain (RBD) …. Description: SPR; clone listed as COV2 only at the 21st table, row 11, column 3. (In general: Surface plasmon resonance follows binding to a sensor surface in real time, without labels.)
As to B1, the binding result is reported as “no binding (tested: up to 300 nM)”.

Another assay deals with T2, SARS-CoV-1 Receptor Binding Domain (RBD) protein (SARS-CoV-1, UniProt P59594 306-527).
T2 construct: also called SARS1
Described as above.
Regarding B1, the binding result was “no binding (tested: up to 300 nM)”.

The target of another assay is SARS-CoV-2 Receptor Binding Domain (RBD) protein (SARS-CoV-2, UniProt P0DTC2 319-541).
Assay: not given
B2: the affinity, expressed as Kd, was 0.4 nM; the koff is 0.000363 s⁻¹; the on-rate (kon) was determined as 828000 M⁻¹ s⁻¹.

Molecule B3 returned a dissociation constant (Kd) of 37.6 nM, an off-rate constant (koff) of 0.0104 s⁻¹ and an association rate constant (kon) of 276000 M⁻¹ s⁻¹.

In turn, B4 registered a Kd of 22.9 nM, a koff of 0.000507 s⁻¹ and a kon of 22100 M⁻¹ s⁻¹.

For the molecule B5, the Kd was found to be 41.2 nM, the dissociation rate constant (koff) turned out to be 0.0173 s⁻¹ and the on-rate constant (kon) was determined as 419000 M⁻¹ s⁻¹.

B6 returned a Kd of 35 nM, an off-rate (koff) of 0.0143 s⁻¹ and an association rate constant (kon) of 409000 M⁻¹ s⁻¹.

Consider B7, for which the Kd is 11.3 nM, the koff worked out at 0.000482 s⁻¹ and the on-rate constant (kon) was 42600 M⁻¹ s⁻¹.

For B8, the Kd came to 26.8 nM, the off-rate (koff) is 0.000679 s⁻¹ and the kon amounted to 25400 M⁻¹ s⁻¹.

B9 displayed a dissociation constant (Kd) of 36.2 nM, a koff of 0.0223 s⁻¹ and a kon of 614000 M⁻¹ s⁻¹.

The molecule B10 yielded an equilibrium dissociation constant (Kd) of 32.8 nM, an off-rate (koff) of 0.0142 s⁻¹ and a kon of 434000 M⁻¹ s⁻¹.

As for B11, the Kd is 41 nM, the off-rate (koff) was 0.0155 s⁻¹ and the kon was 378000 M⁻¹ s⁻¹.

Molecule B12 came in with a Kd of 26.3 nM, an off-rate (koff) of 0.0166 s⁻¹ and a kon of 631000 M⁻¹ s⁻¹.

Take B13: binding was put at a Kd of 30.5 nM, the koff was 0.012 s⁻¹ and the kon was found to be 410000 M⁻¹ s⁻¹.

B14 gave a dissociation constant (Kd) of 46.2 nM, an off-rate constant (koff) of 0.00729 s⁻¹ and an on-rate constant (kon) of 158000 M⁻¹ s⁻¹.

The molecule B15 came in with a Kd of 25.3 nM, a dissociation rate constant (koff) of 0.0058 s⁻¹ and an on-rate constant (kon) of 230000 M⁻¹ s⁻¹.

As to B16, the dissociation constant Kd was determined as 40.3 nM, the off-rate constant (koff) is 0.0124 s⁻¹ and the kon is 308000 M⁻¹ s⁻¹.

In turn, B17 displayed a Kd of 28.7 nM, an off-rate (koff) of 0.0131 s⁻¹ and a kon of 458000 M⁻¹ s⁻¹.

B18 had a Kd of 6.18 nM, an off-rate constant (koff) of 0.00381 s⁻¹ and a kon of 616000 M⁻¹ s⁻¹.

Molecule B19 gave a dissociation constant (Kd) of 41.3 nM, a koff of 0.0217 s⁻¹ and an association rate constant (kon) of 527000 M⁻¹ s⁻¹.

B20 yielded an equilibrium dissociation constant (Kd) of 28.5 nM, a koff of 0.0157 s⁻¹ and an on-rate constant (kon) of 551000 M⁻¹ s⁻¹.

B1 yielded a Kd of 23.3 nM, a dissociation rate constant (koff) of 0.0093 s⁻¹ and a kon of 400000 M⁻¹ s⁻¹.

The molecule B21 returned a Kd of 20.6 nM, a koff of 0.000858 s⁻¹ and a kon of 41700 M⁻¹ s⁻¹.

The next assay deals with T1, MERS Receptor Binding Domain (RBD) …. Description: SPR; clone listed as COV2 only at the 21st table, row 53, column 3.
Turning to B2, the binding result is listed as “no binding (tested: up to 300 nM)”.

The target in another assay is T2, SARS-CoV-1 Receptor Binding Domain …. The description is as above.
Take B2: the binding result is recorded as “no binding (tested: up to 300 nM)”.

A further assay deals with T1, MERS Receptor Binding Domain (RBD) …. Briefly: SPR; clone listed as COV2 only at the 21st table, row 55, column 3.
B4: the binding result is reported as “no binding (tested: up to 300 nM)”.

The target of another assay is T2, SARS-CoV-1 Receptor Binding Domain …. The assay is described as above.
For the molecule B4, the binding result is “no binding (tested: up to 300 nM)”.
